# Source: the supplement of paper PMC12042874
# ± gives the uncertainty stated by the source.
# Test: amyloid nucleation score (Sup35N fusion, yeast selection) (log enrichment); library NNK2; higher = more nucleation; inactive = no reads after selection
# Procedure, shortened: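 Using DiMSum, nucleation scores were taken as the log enrichment of output over input reads, centred on the mode score of non-aggregating sequences. The input and output reads came from Illumina sequencing of plasmid inserts, with sequences under 100 input reads excluded. The yeast were psi-negative, expressed Sup35N fused to peptides of 20 random codons, were induced with 100 μM copper sulfate for 24 hours, and were grown 7 days at 30°C on medium lacking adenine and uracil.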
row,Substance,amyloid nucleation score
1,FDPSMSFNWCICSFELDWAG,5.321 ± 0.032
2,NAYWNDGFVQAFGRGK,-0.644 ± 0.63
3,MMRVTIPGVVLSCWPFGSTR,3.09 ± 0.11
4,SNYLAPYNNSDATYCG,-0.361 ± 0.54
5,SGYQGKYRSMSPRFKFSWVG,-0.392 ± 0.63
6,FFCSSRPDE,-0.286 ± 0.8
7,HKGAARQPRPYMEAVIGPHP,0.792 ± 0.27
8,LSRRAINHFYNIITEVAGRG,inactive
9,LFFSCHRVDCHSALNMFIVS,5.53 ± 0.065
10,QVLISFG,-2.41 ± 1.1
11,PSWGSLCMSQNHMHLEV,-0.087 ± 0.42
12,FNLADSTSSVTP,0.048 ± 0.65
13,GVGYPVFYWKVSMYSRDSDH,3.38 ± 0.067
14,YVAILFRFRRSIMFNLLIQM,-0.318 ± 0.8
15,DHVLSFDSIVVWYLRIGGEE,-0.656 ± 1.1
16,KVNKMPYSLFIYLKKLNFC,-0.518 ± 1.1
17,GLWRLYWILFHF,-1.17 ± 0.78
18,CDLKERTEYMHFLLTFYLVR,-0.891 ± 0.36
19,YDLLGHKAVFEGERVNW,0.003 ± 0.4
20,YMYDVRICPFDNWVYRRNEC,-0.107 ± 0.74
21,IRFQCRSLRFTAIGGQVSWI,3.48 ± 0.095
22,CTFTRLRSSAGSGIRQTPRL,0.048 ± 0.79
23,FSVIICVTALVWACCCTRIV,1.09 ± 0.36
24,FIGNF,0.636 ± 0.19
25,LNTKTCVIPSTTCVTIPERE,0.242 ± 0.17
26,SLAWARISGVVAICTVGRGF,7.44 ± 0.032

row,Substance,amyloid nucleation score
1,SSLDWWSCSGFLNKQQIKSN,1.08 ± 0.12
2,VVRPVTLRFCTKGGMYSSVG,0.407 ± 0.32
3,IFTKNFIPCDFFMS,-2.05 ± 0.76
4,SEYALYAFE,-0.173 ± 0.25
5,KFYVCCATCGCDKINELPVT,8.088 ± 0.06
6,PTMHVRVSG,0.495 ± 0.28
7,YYKQWG,inactive
8,VRPFECGFTLPVWGG,0.923 ± 0.81
9,FFQQRCYVVFAIMTSSGADD,0.864 ± 0.12
10,ILLHIDNGRRSFSNIKATS,-0.886 ± 1.1
11,LNTLSESLEKNSGTLCWAKR,inactive
12,LCQHREMALMLGGEPADDWG,1.87 ± 0.36
13,RIYLGRQYYRSEGLKQLVNG,0.151 ± 0.63
14,TVHDYFDVQECVIDQCKGLP,0.654 ± 0.57
15,GSVVHQEFFSPSKGFVSSQF,-1.4 ± 0.55
16,GADGTSVLDFCDSVTV,-1.32 ± 0.44
17,CLTTRTSGHNGYQRHDLI,inactive
18,PDHKLARTIYWAPCTMDWVI,-0.057 ± 0.61
19,LYNVVSNTVKYCIFPC,7.135 ± 0.043
20,FILRGDNLC,-1.01 ± 1
21,VLSEI,0.607 ± 0.25
22,FCALWVQFRYRE,3.89 ± 0.1
23,HGYSVFYAVYAEGEMNIINA,-0.172 ± 1.1
24,VSIIRIKYSNQAISVRNSDS,4.155 ± 0.038
25,VDPHFFIRLFLEYHNVMSWY,inactive
26,HASNH,-0.689 ± 0.42

row,Substance,amyloid nucleation score
1,HVNYWGRLCMKKRCNVDVNH,5.634 ± 0.043
2,CTRMRPPYLEHQSCDRLSSR,0.241 ± 0.54
3,LSWRFFLSCWN,inactive
4,SGGHKWVYFASCISFLRPWR,-0.069 ± 0.55
5,FKSCLAGVGLFILMRFHNIA,inactive
6,HGYSWVVI,0.019 ± 0.19
7,GVGVLGVLNYVCWLMQCCGL,0.987 ± 0.22
8,TRFTYCFVVRNLVTRNRPIS,-0.646 ± 0.22
9,FCRDLVSGLIMTMPLCTDEM,0.079 ± 0.5
10,LDDWDGKTSRIHSGFYSRLR,0.224 ± 0.52
11,YVKSRHTNYDGRSTLL,3.12 ± 0.13
12,YSMVIY,-0.014 ± 0.76
13,LVKCHANGCFPYLSTIFIRP,0.156 ± 0.41
14,HSGMRMRPASSCSPKKP,0.189 ± 0.49
15,IRNDKYW,-0.101 ± 0.31
16,YLIIKCDKRCVEDFDALLE,4.4 ± 0.071
17,SLSRRQLTIPPVTTRVIQSH,0.637 ± 0.25
18,SCLYSSRPSMLGTIYRRMRC,0.163 ± 0.34
19,HTEFGRVGNICLGMRCEVDW,0.792 ± 0.4
20,INVHSSSG,0.344 ± 0.36
21,VDNSLVNMLTAMGWSGFMHT,0.255 ± 0.49
22,FEGSLPVPDGEEAWCAQRMS,-0.006 ± 0.45
23,GYVSRDSFVLYWPSRNDCLA,0.276 ± 0.22
24,VVNLETVCIYRKLSYKFQVR,inactive
25,GVAGFDTSDNETG,0.543 ± 0.33
26,NNSGSNKSD,-0.509 ± 0.78

row,Substance,amyloid nucleation score
1,DRESRFLYVYHSRY,inactive
2,CWMFVVHIAIWGGVSLDGIV,0.208 ± 1.1
3,WRLNEDHNRYDLIPGVRGLG,0.519 ± 0.56
4,LKMKFSYDWGVDTILLCRKA,0.284 ± 1.1
5,YCTNFYVEAGAIGS,-0.682 ± 0.42
6,NPTLGHKNVFVRYSF,2.9 ± 0.14
7,GRYHIDSRKGKSNKSRGNIY,inactive
8,SEWSTYLCSSNI,inactive
9,QNAMGTSVDYNVNFVYVGNL,3.38 ± 0.089
10,KCGSTFPLDLLYMSY,-1.16 ± 0.49
11,DANDSSWEGG,0.669 ± 0.74
12,RLLHYAFAFTARV,3.15 ± 0.068
13,GCRHYYWMMCNLVTFMKRES,7.237 ± 0.028
14,CICLIMRTKTCELGSLLG,5.781 ± 0.046
15,ACNWLESFIKCFICVWYRDK,7.73 ± 0.079
16,RGYACCL,-0.574 ± 0.48
17,FPLRCFTIFSMRASNF,0.615 ± 0.66
18,YPEDEFFQHRRWKRILSWDV,inactive
19,DINKFVAVWCHYLSGKGLLP,-0.359 ± 0.26
20,ATHVCVGFTYGFWW,2.4 ± 0.14
21,NLGYYTG,-0.868 ± 1.1
22,KYVCVI,0.809 ± 0.48
23,SLMIHGHLFRIRVRSLRGRI,-0.714 ± 0.76
24,HEHSDVRKKVGWMAFWR,4.42 ± 0.06
25,YIGCNNYEGKNKCVIFLSFS,6.079 ± 0.05
26,SLTMYGSIEWLNNVSAILRH,0.541 ± 0.66

row,Substance,amyloid nucleation score
1,MTVDYLHRLCCMRPLYTSKN,inactive
2,TSRDSRAL,-0.742 ± 1.1
3,APVMYVT,0.057 ± 0.48
4,TSGPLFAPPC,0.402 ± 0.66
5,LIFFYSS,-1.05 ± 1
6,VVSFNWLEYVSNMSQMNWDG,-0.015 ± 0.63
7,IADQTSSSDYLVRTVFNFSV,1.72 ± 0.099
8,RANGLSFCTSLLLGEYLNNG,2.63 ± 0.078
9,FSYRCFINTSQFYSAIKIFL,0.691 ± 0.14
10,DMVDLCSKDMSRALFGPNMS,5.39 ± 0.059
11,FFRGSYTRAWH,0.967 ± 0.29
12,TLIAYCLL,7.492 ± 0.046
13,NCDVGYLCLEKFNIPRRSVL,-0.805 ± 0.64
14,NLAFSSSIRPLITLEGELLP,-0.176 ± 1.1
15,TFATIRVAFMVMCRFDG,3.23 ± 0.084
16,RMVTVAS,1.68 ± 0.32
17,DQSFLF,-0.039 ± 0.39
18,GCKSGDQDLALRNGCRKQRS,0.594 ± 0.45
19,HFCYYMCFEWLDTIVAYYLG,-0.337 ± 1.1
20,LWLADDSATRV,0.814 ± 0.19
21,GSVTTCSAWYKRRNLDICHR,-0.277 ± 0.22
22,SNEIQNII,0.57 ± 0.81
23,LGNDR,-0.744 ± 0.48
24,PPHRAYGILMMNTRRTSSIT,0.604 ± 0.37
